B1: mAKAP 1286-2083: myc-tagged rat mAKAP 1286-2083 construct deficient in PP2A binding (protein)
chain: VYSLHNVELHEDSHTPFLKSSPKFTGTTQPTVLTKSLSKDSSFSSTKSLPDLLGGSGLVRPYSCHSGDLSQNSGSESGIVSEGDNEMPTNSDMSLFSMVDGSPSNPETEHPDPQMGDAANVLEQKFKDNGESIKLSSVSRASVSPVGCVNGKAGDLNSVTKHTADCLGEELQGKHDVFTFYDYSYLQGSKLKLPMIMKQPQSEKAHVEDPLLGGFYFDKKSCKAKHQASESQPDAPPHERILASAPHEMGRSAYKSSDIEKTFTGIQSARQLSLLSRSSSVESLSPGGDLFGLGIFKNGSDSLQRSTSLESWLTSYKSNEDLFSCHSSGDISVSSGSVGELSKRTLDLLNRLENIQSPSEQKIKRSVSDMTLQSSSQKMPFAGQMSLDVASSINEDSPASLTELSSSDELSLCSEDIVLHKNKIPESNASFRKRLNRSVADESDVNVSMIVNVSCTSACTDDEDDSDLLSSSTLTLTEEELCLKDEDDDSSIATDDEIYEESNLMSGLDYIKNELQTWIRPKLSLTREKKRSGVTDEIKVNKDGGGNEKANPSDTLDIEALLNGSIRCLSENNGNGKTPPRTHGSGTKGENKKSTYDVSKDPHVADMENGNIESTPEREREKPQGLPEVSENLASNVKTISESELSEYEAVMDGSEDSSVARKEFCPPNDRHPPQMGPKLQHPENQSGDCKPVQNPCPGLLSEAGVGSRQDSNGLKSLPNDAPSGARKPAGCCLLEQNETEESASISSNASCCNCKPDVFHQKDDEDCSVHDFVKEIIDMASTALKSKSQPESEVAAP
modifications: left off: small tags and cut ends
B2: rat mAKAP 1835-2312: GFP-fusion fragment of rat mAKAP (protein)
chain: ANPSDTLDIEALLNGSIRCLSENNGNGKTPPRTHGSGTKGENKKSTYDVSKDPHVADMENGNIESTPEREREKPQGLPEVSENLASNVKTISESELSEYEAVMDGSEDSSVARKEFCPPNDRHPPQMGPKLQHPENQSGDCKPVQNPCPGLLSEAGVGSRQDSNGLKSLPNDAPSGARKPAGCCLLEQNETEESASISSNASCCNCKPDVFHQKDDEDCSVHDFVKEIIDMASTALKSKSQPESEVAAPTSLTQIKEKVLEHSHRPIHLRKGDFYSYLSLSSHDSDCGEVTNYIDEKSSTPLPPDAVDSGLDDKEDMDCFFEACVEDEPVNEEAGLPGALPNESAIEDGAEQKSEQKTASSPVLSDKTDLVPLSGLSPQKGADDAKEGDDVSHTSQGCAESTEPTTPSGKANAEGRSRMQGVSATPEENAASAKPKIQAFSLNAKQPKGKVAMRYPSPQTLTCKEKLVNFHEDRHSNM
modifications: left off: large carriers
B3: mAKAP 1286-2312: myc-tagged mAKAP construct containing binding sites for PDE4D3, PKA and PP2A (protein)
chain: VYSLHNVELHEDSHTPFLKSSPKFTGTTQPTVLTKSLSKDSSFSSTKSLPDLLGGSGLVRPYSCHSGDLSQNSGSESGIVSEGDNEMPTNSDMSLFSMVDGSPSNPETEHPDPQMGDAANVLEQKFKDNGESIKLSSVSRASVSPVGCVNGKAGDLNSVTKHTADCLGEELQGKHDVFTFYDYSYLQGSKLKLPMIMKQPQSEKAHVEDPLLGGFYFDKKSCKAKHQASESQPDAPPHERILASAPHEMGRSAYKSSDIEKTFTGIQSARQLSLLSRSSSVESLSPGGDLFGLGIFKNGSDSLQRSTSLESWLTSYKSNEDLFSCHSSGDISVSSGSVGELSKRTLDLLNRLENIQSPSEQKIKRSVSDMTLQSSSQKMPFAGQMSLDVASSINEDSPASLTELSSSDELSLCSEDIVLHKNKIPESNASFRKRLNRSVADESDVNVSMIVNVSCTSACTDDEDDSDLLSSSTLTLTEEELCLKDEDDDSSIATDDEIYEESNLMSGLDYIKNELQTWIRPKLSLTREKKRSGVTDEIKVNKDGGGNEKANPSDTLDIEALLNGSIRCLSENNGNGKTPPRTHGSGTKGENKKSTYDVSKDPHVADMENGNIESTPEREREKPQGLPEVSENLASNVKTISESELSEYEAVMDGSEDSSVARKEFCPPNDRHPPQMGPKLQHPENQSGDCKPVQNPCPGLLSEAGVGSRQDSNGLKSLPNDAPSGARKPAGCCLLEQNETEESASISSNASCCNCKPDVFHQKDDEDCSVHDFVKEIIDMASTALKSKSQPESEVAAPTSLTQIKEKVLEHSHRPIHLRKGDFYSYLSLSSHDSDCGEVTNYIDEKSSTPLPPDAVDSGLDDKEDMDCFFEACVEDEPVNEEAGLPGALPNESAIEDGAEQKSEQKTASSPVLSDKTDLVPLSGLSPQKGADDAKEGDDVSHTSQGCAESTEPTTPSGKANAEGRSRMQGVSATPEENAASAKPKIQAFSLNAKQPKGKVAMRYPSPQTLTCKEKLVNFHEDRHSNM
modifications: left off: small tags and cut ends
B4: human 2085-2319: GFP-fusion fragment of human mAKAP residues 2085-2319 (protein)
chain: TSLTQIKEKVLEHSHRPIQLRKGDFYSYLSLSSHDSDCGEVTNYIEEKSSTPLPLDTTDSGLDDKEDIECFFEACVEGDSDGEEPCFSSAPPNESAVPSEAAMPLQATACSSEFSDSSLSADDADTVALSSPSSQERAEVGKEVNGLPQTSSGCAENLEFTPSKLDSEKESSGKPGESGMPEEHNAASAKSKVQDLSLKANQPTDKAALHPSPKTLTCEENLLNLHEKRHRNMHR
modifications: left off: large carriers

What was measured:
PDE4D3 Ser-54 = PDE4D3 Ser-54 phosphorylation in mAKAP immunoprecipitates from transfected HEK293 cells (phospho-specific immunoblot); format: cell-based; settings: HEK293 cells expressing PDE4D3 and mAKAP construct lacking the PP2A binding site
mAKAP-bound PDE4D3 = assay: PDE activity associated with mAKAP immunoprecipitates from transfected HEK293 cells ([3H]cAMP); format: cell-based; settings: unstimulated (bar 1 and 4)
Protocol: Immunoprecipitation—HEK293 cells were used in this project as a heterologous system lacking mAKAP in which the various wildtype and mutant proteins could be easily expressed. Cells cultured on 60 mm plates were transfected at 50%-70% confluency by the calcium phosphate method, using 6 μg of each DNA construct per plate. Cells were harvested 24 hours after transfection in 0.5 ml HSE buffer (HEPES, pH 7.4, 150 mM NaCl, 5 mM EDTA, 1% Triton X-100 and protease inhibitors). Supernatants were incubated with 3 μg antibody and 15 μl prewashed protein A- or G-agarose beads. Following overnight incubation at 4° C., the immunoprecipitates were washed three times with the same buffer. Bound proteins were analyzed by immunoblotting. […]
As phosphorylation of PDE4D3 Ser-54 increases phosphodiesterase activity 2 fold (Sette and Conti 1996), whether OA treatment would also increase the activity of mAKAP-bound PDE4D3 was tested. mAKAP complexes were immunoprecipitated from transfected HEK293 cells and assayed for associated phosphodiesterase activity (FIG. 8B). mAKAP-associated phosphodiesterase activity in untreated cells was detected only when mAKAP was co-expressed with PDE4D3 (FIG. 8B, bar 1, and data not shown), consistent with a previous observation that PDE4D3 accounts for all of the phosphodiesterase activity associated with mAKAP in cardiac myocytes (Dodge et al. 2001).

PP2A = target: T1, PP2A (Homo sapiens, UniProt P30153+P67775); assay: myc-tag immunoprecipitation of mAKAP fragments from HEK293 cells with phosphatase assay; format: binding; settings: myc-tagged fragments expressed in HEK293 cells
T1 construct: endogenous in cells; host or cells: HEK293
T1 sequence (P67775 whole entry, the tested form may be a part): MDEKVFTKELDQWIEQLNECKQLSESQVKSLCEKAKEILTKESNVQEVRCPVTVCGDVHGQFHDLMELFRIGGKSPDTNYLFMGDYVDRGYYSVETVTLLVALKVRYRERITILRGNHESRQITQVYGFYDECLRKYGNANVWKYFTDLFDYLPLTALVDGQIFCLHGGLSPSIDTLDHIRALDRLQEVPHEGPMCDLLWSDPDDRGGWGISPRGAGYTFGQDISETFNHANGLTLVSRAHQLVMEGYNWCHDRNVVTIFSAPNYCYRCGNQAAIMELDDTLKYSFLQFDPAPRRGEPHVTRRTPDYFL
T1 sequence (P30153 whole entry, the tested form may be a part): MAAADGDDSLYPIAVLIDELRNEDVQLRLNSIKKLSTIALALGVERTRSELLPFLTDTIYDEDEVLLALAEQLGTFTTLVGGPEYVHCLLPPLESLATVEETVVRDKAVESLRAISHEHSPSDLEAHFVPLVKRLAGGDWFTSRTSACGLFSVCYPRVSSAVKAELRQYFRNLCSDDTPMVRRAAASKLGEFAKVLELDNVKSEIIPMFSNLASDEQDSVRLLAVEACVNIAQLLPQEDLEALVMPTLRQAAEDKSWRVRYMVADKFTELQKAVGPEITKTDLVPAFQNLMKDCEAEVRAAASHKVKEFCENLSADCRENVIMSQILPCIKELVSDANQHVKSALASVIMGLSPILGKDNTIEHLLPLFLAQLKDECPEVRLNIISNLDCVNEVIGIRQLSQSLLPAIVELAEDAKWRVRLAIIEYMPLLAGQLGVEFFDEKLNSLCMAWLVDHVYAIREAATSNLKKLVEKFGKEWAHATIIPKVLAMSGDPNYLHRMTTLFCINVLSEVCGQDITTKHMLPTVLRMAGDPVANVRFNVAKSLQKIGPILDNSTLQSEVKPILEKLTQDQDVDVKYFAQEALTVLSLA
Protocol: Immunoprecipitation—HEK293 cells were used in this project as a heterologous system lacking mAKAP in which the various wildtype and mutant proteins could be easily expressed. Cells cultured on 60 mm plates were transfected at 50%-70% confluency by the calcium phosphate method, using 6 μg of each DNA construct per plate. Cells were harvested 24 hours after transfection in 0.5 ml HSE buffer (HEPES, pH 7.4, 150 mM NaCl, 5 mM EDTA, 1% Triton X-100 and protease inhibitors). Supernatants were incubated with 3 μg antibody and 15 μl prewashed protein A- or G-agarose beads. Following overnight incubation at 4° C., the immunoprecipitates were washed three times with the same buffer. Bound proteins were analyzed by immunoblotting.
To measure phosphatase activity, immunoprecipitated protein complexes were washed twice in HSE buffer and once in PP2A reaction buffer. The immunoprecipitates were incubated for 30 minutes at 30° C. in 20 μl PP2A assay buffer containing 100,000 cpm [^32P]histone in the presence and absence of inhibitors. The PP2A inhibitor (Calbiochem) was used at a concentration of 30 nM. Purified I-1 was phosphorylated by PKA before using as a specific PP1 inhibitor. Reactions were terminated by the addition of 100 μl 20% TCA followed by 10 min centrifugation. TCA supernatants containing released ^32PO4 were measured by scintillation counting. […]

PP2A-A subunit = target: T2, PP2A-A subunit (Homo sapiens, UniProt P30153); assay: GST-PP2A-A pull-down of GFP-tagged mAKAP fragments expressed in HEK293 cells; format: binding; settings: GFP-tagged fragments in HEK293 cell extracts
T2 construct: made in house; host or cells: bacteria
T2 sequence (P30153 whole entry, the tested form may be a part): as above
Protocol: GST-pulldowns—Glutathione resin adsorbed with PP2A-A subunit GST fusion protein or GST control protein were incubated with HEK293 cell extracts. After an overnight incubation, the beads were washed three times. Bound proteins were analyzed by immunoblotting.
mAKAP residues 2083-2319 contain the PP2A binding domain. In order to map the PP2A binding site on mAKAP, a bacterially-expressed PP2A-A subunit GST-fusion protein was used to pull down GFP-tagged fragments of mAKAP expressed in HEK293 cells (FIGS. 10A & B). GST-PP2A-A consistently pulled down only fragments of mAKAP containing a domain C-terminal to residue 2085.

Row | Molecule | baseline phosphorylation of mAKAP-bound PDE4D3, fold of the level obtained with OA (PDE4D3 Ser-54) | PDE4D3 activity higher in immunoprecipitates lacking PP2A than in complexes containing the phosphatase (mAKAP-bound PDE4D3) | co-immunoprecipitation with OA-sensitive phosphatase activity (PP2A) | binding to GST-PP2A-A (pull-down) (PP2A-A subunit)
1 | B1 | 0.49±0.19 fold | 30% | not | –
2 | B2 | – | – | – | bound GST-PP2A-A
3 | B3 | – | – | co-immunoprecipitated with OA-sensitive phosphatase activity | –
4 | B4 | – | – | – | bound GST-PP2A-A

Source: patent US11938198B2, “Treatment of heart disease by disruption of the anchoring of PP2A” (University of Miami, priority 2019, dated 2024)
